Data: patent US20160297884A1 (Pfizer, published 2016)
Numbering of substitutions follows the chain as printed.

B1: A02_Rd4_0.6nM_C13 (antibody, V domains shown)
VH: EVQLLESGGGLVQPGGSLRLSCAASGFTFSSYAMNWVRQAPGKGLEWVSAISDSGGYRYYADSVKGRFTISRDNSKNTLYLQMNSLRAEDTAVYYCARYWPMSLWGQGTLVTVSS
VL: EIVLTQSPGTLSLSPGERATLSCRASQSVSSSYWAWYQQKPGQAPRLLMYDASIRATGIPDRFSGSGSGTDFTLTISRLEPEDFAVYYCQQYESWPLTFGQGTKVEIK
notes: IgG
B2: A02_Rd4_0.6nM_C26 (antibody, V domains shown)
VH: B1 VH with S52L, D53M, Y57S, R58T
VL: B1 VL with R24G, A25P, W34L, E93Q
notes: IgG
B3: A02_Rd4_6nM_C01 (antibody, V domains shown)
VH: B1 VH with S52T, D53A, Y57S, R58T
VL: B1 VL with S31A, S32Y, W34L, S94R
notes: IgG
B4: A02_Rd4_6nM_C03 (antibody, V domains shown)
VH: B1 VH with Y57S, R58T, S103D, L104I
VL: B1 VL with S31N, S32L, W34L, E93Q, S94G
notes: IgG
B5: A02_Rd4_6nM_C04 (antibody, V domains shown)
VH: B1 VH with S52M, D53S, Y57P, R58L, S103A
VL: B1 VL with S31A, S32L, W34L, E93Q, S94V
notes: IgG
B6: A02_Rd4_6nM_C05 (antibody, V domains shown)
VH: B1 VH with S52F, D53A, Y57S, R58T, S103T, L104P
VL: B1 VL with W34L, E93Q, S94R
notes: IgG
B7: A02_Rd4_6nM_C07 (antibody, V domains shown)
VH: B1 VH with S52G, D53G, Y57S, R58L, Y59P, S103D, L104S
VL: B1 VL with S31P, S32Y, W34L, S94R
notes: IgG
B8: A02_Rd4_6nM_C08 (antibody, V domains shown)
VH: B1 VH with S52L, Y57S, R58T, L104P
VL: B1 VL with S31F, S32L, W34L, E93G
notes: IgG
B9: A02_Rd4_6nM_C10 (antibody, V domains shown)
VH: B1 VH with Y57S, R58C, Y59W, S103T, L104P
VL: B1 VL with S30E, S31M, W34L, E93A, S94H
notes: IgG
B10: A02_Rd4_6nM_C16 (antibody, V domains shown)
VH: B1 VH with S54F, Y57S, R58T, S103D, L104I
VL: B1 VL with S31D, S32L, W34L, E93Q, S94T
notes: IgG; also called P5AC16
B11: A02_Rd4_6nM_C19 (antibody, V domains shown)
VH: B1 VH with Y57S, Y59W, L104D
VL: B1 VL with S31V, S32L, W34L, E93L, S94A
notes: IgG
B12: A02_Rd4_6nM_C22 (antibody, V domains shown)
VH: B1 VH with I51V, S52L, Y57S, R58T, S103T, L104P
VL: B1 VL with W34L, E93Q, S94V
notes: IgG
B13: A02_Rd4_6nM_C23 (antibody, V domains shown)
VH: B1 VH with Y57S, R58G, Y59W
VL: B1 VL with S31V, S32E, W34L, E93A, S94R
notes: IgG
B14: A02_Rd4_6nM_C25 (antibody, V domains shown)
VH: B1 VH with Y57S, Y59W, S103T, L104P
VL: B1 VL with W34L, E93L, S94D
notes: IgG
B15: A02_Rd4_6nM_C26 (antibody, V domains shown)
VH: B1 VH with Y57S, R58T
VL: B1 VL with S32L, W34L, E93Q, S94V
notes: IgG
B16: C01_Rd4_0.6nM_C03 (antibody, V domains shown)
VH: B1 VH with A33P, N35S, S52G, D53G, Y57S, R58L, Y59P, S103D, L104S
VL: B1 VL with Q27C, S28D, S32T, W34L, M49I, I54S, T57P, E93M, S94R, W95S
notes: IgG
B17: C01_Rd4_0.6nM_C06 (antibody, V domains shown)
VH: B1 VH with A33P, N35S, S52G, D53G, Y57S, R58L, Y59P, S103D, L104S
VL: EIVLTQSPGTLSLSPGERATLSCRASEAVPSTYLAWYQQKPGQAPRLLIYDASSRAPGIPDRFSGSGSGTDFTLTISRLEPEDFAVYYCQQYSAFPLTFGQGTKVEIK
notes: IgG
B18: C01_Rd4_0.6nM_C09 (antibody, V domains shown)
VH: B1 VH with A33P, N35S, S52G, D53G, Y57S, R58L, Y59P, S103D, L104S
VL: B17 VL with E27Q, A28S, P30S, T32L, Y33F, F95W
notes: IgG
B19: C01_Rd4_0.6nM_C16 (antibody, V domains shown)
VH: B1 VH with A33P, N35S, S52G, D53G, Y57S, R58L, Y59P, S103D, L104S
VL: B17 VL with E27Q, A28S, P30S, A94S, F95W
notes: IgG
B20: C01_Rd4_0.6nM_C27 (antibody, V domains shown)
VH: B1 VH with A33P, N35S, S52G, D53G, Y57S, R58L, Y59P, S103D, L104S
VL: B17 VL with E27Q, A28S, P30S, A94R, F95W
notes: IgG
B21: C01_Rd4_6nM_C04 (antibody, V domains shown)
VH: B1 VH with A33P, N35S, S52G, D53G, Y57S, R58L, Y59P, S103D, L104S
VL: B17 VL with R24C, A25S, E27Q, A28S, P30S
notes: IgG
B22: C01_Rd4_6nM_C09 (antibody, V domains shown)
VH: B1 VH with A33P, N35S, I51T, S52V, D53G, Y57S, R58I, Y59G, S103D, L104S
VL: B17 VL with R24A, A25C, E27Q, A28S, P30S, F95W
notes: IgG

These binders were tested against T1, Cynomolgus monkey BCMA (cynomolgus monkey) (assay: SPR, IgG immobilised, cyno BCMA analyte).
T1 construct: Soluble analyte in SPR; also called cyBCMA; Cyno BCMA
Experimental: (§1) All experiments were performed on a Bio-Rad Proteon XPR36 surface Plasmon resonance biosensor (Bio-Rad, Hercules, Calif.). […] The analysis temperature for the immobilization was 25° C. and the running buffer was HBS-T+(10 mM HEPES, 150 mM NaCl, 0.05% Tween-20, pH 7.4). Channels were activated in the analyte (horizontal) direction by injecting a mixture of 1 mM ECD and 0.25 mM NHS for 3 minutes at a flow rate of 30 μL/min. IgGs were immobilized on the activated spots by injecting them in the ligand (vertical) direction at 20 μg/mL in 10 mM Acetate pH 4.5 buffer for 1.5 minutes at […]. The activated surfaces were blocked by injecting 1M ethanolamine, pH 8.5 in the analyte direction for 3 minutes at 30 μL/min.
(§2) The analysis temperature for the BCMA binding analysis was 37° C. or 25° C. in a running buffer of HBS-T+, supplemented with 1 mg/mL BSA. A kinetic titration method was employed for the interaction analysis as described in Abdiche, et al. Human BCMA (huBCMA) or cynomolgus monkey BCMA (cyBCMA) analyte was injected in the analyte direction using a series of injections from low to high concentration. The concentrations used were 0.08 nM, 0.4 nM, 2 nM, 10 nM and 50 nM (a 5-membered series, with a 5-fold dilution factor and top concentration of 50 nM). The association time for a given analyte dilution was two minutes. Immediately after the 50 nM BCMA injection, dissociation was monitored for 2 hours.
(§3) The sensorgrams were double-referenced and fit to a 1:1 Langmuir with mass transport kinetic titration model in BIAevaluation Software version 4.1.1 (GE Lifesciences, Piscataway, N.J.).

Binder | Kd [nM] | koff [s⁻¹] | kon [M⁻¹ s⁻¹]
B1 | 0.56 | 0.00128 | 2.29e+06
B2 | 0.941 | 0.00256 | 2.71e+06
B3 | 0.401 | 0.000583 | 1.45e+06
B4 | 0.158 | 0.000185 | 1.17e+06
B5 | 0.381 | 0.000831 | 2.18e+06
B6 | 0.95 | 0.00129 | 1.36e+06
B7 | 1.14 | 0.000786 | 691000
B8 | 5.07 | 0.0113 | 2.23e+06
B9 | 0.472 | 0.000898 | 1.9e+06
B10 | 0.118 | 0.000158 | 1.34e+06
B11 | 0.26 | 0.000661 | 2.54e+06
B12 | 0.176 | 0.000324 | 1.84e+06
B13 | 0.157 | 0.000414 | 2.63e+06
B14 | 0.22 | 0.00033 | 1.5e+06
B15 | 0.203 | 0.000448 | 2.21e+06
B16 | 2.53 | 0.0119 | 4.72e+06
B17 | 1.95 | 0.0121 | 6.22e+06
B18 | 1.77 | 0.00936 | 5.28e+06
B19 | 0.939 | 0.00464 | 4.95e+06
B20 | 0.852 | 0.00285 | 3.34e+06
B21 | 5.16 | 0.0327 | 6.34e+06
B22 | 2.33 | 0.00868 | 3.73e+06

These binders were tested against T2, Human BCMA (human, UniProt Q02223 1-54, limits assumed) (assay: SPR, IgG immobilised, human BCMA analyte).
T2 construct: also called huBCMA; B-cell maturation antigen
T2 sequence (looked up): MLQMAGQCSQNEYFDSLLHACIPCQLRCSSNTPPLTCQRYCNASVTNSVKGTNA
Experimental: as §1, §2, §3

Binder | Kd [nM] | koff [s⁻¹] | kon [M⁻¹ s⁻¹]
B1 | 0.066 | 0.000566 | 8.53e+06
B2 | 0.061 | 0.000443 | 7.26e+06
B3 | 0.03 | 9.2e-05 | 3.11e+06
B4 | 0.075 | 0.000126 | 1.69e+06
B5 | 0.135 | 0.000603 | 4.47e+06
B6 | 0.099 | 0.000308 | 3.1e+06
B7 | 0.128 | 0.000189 | 1.48e+06
B8 | 0.188 | 0.000738 | 3.92e+06
B9 | 0.07 | 0.000315 | 4.51e+06
B10 | 0.09 | 0.000141 | 1.56e+06
B11 | 0.049 | 0.000148 | 3e+06
B12 | 0.054 | 0.000182 | 3.38e+06
B13 | 0.021 | 0.000255 | 1.22e+07
B14 | 0.065 | 0.00018 | 2.75e+06
B15 | 0.033 | 0.000139 | 4.26e+06
B16 | 0.964 | 0.015 | 1.55e+07
B17 | 0.847 | 0.0154 | 1.82e+07
B18 | 0.545 | 0.00825 | 1.51e+07
B19 | 0.407 | 0.0063 | 1.55e+07
B20 | 0.303 | 0.00374 | 1.23e+07
B21 | 2.13 | 0.0497 | 2.33e+07
B22 | 0.811 | 0.0128 | 1.58e+07
